We go through one substance from doi:10.1101/416081v1.

Common to all, as to assay: purified protein
One series deals with CC(=O)Oc1ccccc1. To be noted: pH 8.0; 25.0 °C.
The next series has as its system O=C1CCc2ccccc2O1. To be noted: pH 7.4; 25.0 °C.
Series [1] relates to CCCC(=O)Oc1ccc([N+](=O)[O-])cc1. To be noted: pH 8.0; 25.0 °C.
The test system of series [2] is CC(=O)Oc1ccc([N+](=O)[O-])cc1. Conditions: pH 8.0; 25.0 °C.

Regarding reTAPON1-LIKE (Trichoderma atroviride), the Km – broadly, the concentration of substrate that gives half-maximal velocity – in the series with CC(=O)Oc1ccccc1 is 890 ± 60 µM; in the series with O=C1CCc2ccccc2O1 it was 730 ± 10 µM; in series [1] it was 1580 ± 120 µM; in series [2], 1120 ± 140 µM.
